The target of this experiment is T1, recombinant I-domain of α2 integrin subunit (human, UniProt P17301 169-366).
T1 construct: domain: I-domain; Expressed from pQE30 and purified by Ni2+-chelating chromatography; also called α2-I domain
T1 sequence: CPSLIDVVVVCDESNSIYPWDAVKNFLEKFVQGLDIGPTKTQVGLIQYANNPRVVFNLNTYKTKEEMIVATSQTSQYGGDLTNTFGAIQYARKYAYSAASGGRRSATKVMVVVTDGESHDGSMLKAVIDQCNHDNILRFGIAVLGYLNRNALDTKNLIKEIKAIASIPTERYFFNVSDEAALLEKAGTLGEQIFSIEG
The experiment can be described thus: SPR (BIACORE 3000), P176 immobilized on a CM5 chip, α2-I as analyte, 1 mM MgCl2; Scatchard analysis of the equilibrium responses. (In SPR one partner is held on a chip, and binding of the other changes the refractive index at the surface.)

B1: recombinant P176 (Scl1.41 recombinant protein) (other)
chain: EDSETATARTKLLEKLTELRSQSQDRVPQTSDITQAYTLWGTSYDSVELYKYLQQIEEYLQKQKYHEEQWKKEITDGLKSGALRGEKGEAGPQGEKGLPGLTGLPGLPGERGPRGPKGDRGETGAQGPVGPQGEKGEAGTPGKDGLRGPQGDPGAPGKDGAPGEKGDRGETGAQGPVGPQGEKGEAGTPGKDGAPGEKGEKGDRGETGATGAQGPQGEAGKDGAQGPVGPQGEKGETGAQGPAGPQGEKGETGAQGPAGPQGEAGQPGEKAPEKSPEVTPTPEMPEQPGEQAPEKSKEVTPAPEKWSHPQFEK
notes: Expressed in E. coli from pSL176 (scl1.M41 allele, GenBank AY452037); also called Scl P176
In the case of B1, the Kd amounted to 0.017 µM.

As a reminder, the Kd is the concentration at which binding is half-saturated.
